Article PMC2763353

Assays:
Assay in all cases: EMSA
[1] = biological target: Pax5(1-149) WT;Ets-1(331-440) (human;murine, UniProt Q02548;P27577 1-149;331-440, |)
[2] = biological target: Pax5(1-149) WT;GABPα(311-430);GABPβ1(1-157) (human;;, UniProt Q02548;Q00422;Q00420 1-149;311-430;1-157, ||)
[3] = biological target: Pax5(1-149) WT;GABPα(311-430) (human;, UniProt Q02548;Q00422 1-149;311-430, |)
Ets-1(331-440) = biological target: T1, Ets-1(331-440) (murine, UniProt P27577 331-440)
T1 sequence: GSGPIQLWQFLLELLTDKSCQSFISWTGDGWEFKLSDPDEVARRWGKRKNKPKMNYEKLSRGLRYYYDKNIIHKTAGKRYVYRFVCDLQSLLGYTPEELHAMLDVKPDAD

[4] = biological target: GABPα(311-430);GABPβ1(1-157) (;, UniProt Q00422;Q00420 311-430;1-157, |)
Chain of GABPα(311-430);GABPβ1(1-157) (Q00422 311-430, chain 1 of 2): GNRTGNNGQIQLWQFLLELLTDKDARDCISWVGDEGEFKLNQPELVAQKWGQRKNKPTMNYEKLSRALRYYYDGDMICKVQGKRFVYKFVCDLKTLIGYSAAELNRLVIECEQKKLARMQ
Chain of GABPα(311-430);GABPβ1(1-157) (Q00420 1-157, chain 2 of 2): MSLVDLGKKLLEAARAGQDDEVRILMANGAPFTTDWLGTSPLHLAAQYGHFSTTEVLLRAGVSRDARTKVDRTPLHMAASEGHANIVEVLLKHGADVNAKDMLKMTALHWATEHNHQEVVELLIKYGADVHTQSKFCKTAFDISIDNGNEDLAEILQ

Pax5(1-149) WT = Pax5(1-149) WT (human, UniProt Q02548 1-149)
Chain of Pax5(1-149) WT (Q02548 1-149): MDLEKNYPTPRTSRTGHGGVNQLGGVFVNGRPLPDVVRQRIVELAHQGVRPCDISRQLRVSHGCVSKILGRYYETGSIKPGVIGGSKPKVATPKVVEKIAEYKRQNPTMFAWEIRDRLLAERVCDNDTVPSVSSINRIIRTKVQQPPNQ

Pax5(1-149) Q22A = Pax5(1-149) Q22A (human, UniProt Q02548 1-149, Q22A)
Chain of Pax5(1-149) Q22A (Q02548 1-149 Q22A): as the sequence (Q02548 1-149) above, with Q22A counted along it

[5] = biological target: Pax5(1-149) WT;Ets-1(280-440) (human;murine, UniProt Q02548;P27577 1-149;280-440, |)
Chain of Pax5(1-149) WT;Ets-1(280-440) (Q02548 1-149, chain 1 of 2, one chain of several): as the sequence (Q02548 1-149) above

[6] = biological target: Pax5(1-149) Q22A;GABPα(311-430) (human;, UniProt Q02548;Q00422 1-149;311-430, Q22A|)
Chain of Pax5(1-149) Q22A;GABPα(311-430) (Q02548 1-149 Q22A, chain 1 of 2): as the sequence (Q02548 1-149) above, with Q22A counted along it
Chain of Pax5(1-149) Q22A;GABPα(311-430) (Q00422 311-430, chain 2 of 2): as the sequence (Q00422 311-430, chain 1 of 2) above

Ets-1(280-440) = biological target: T2, Ets-1(280-440) (murine, UniProt P27577 280-440)
T2 sequence: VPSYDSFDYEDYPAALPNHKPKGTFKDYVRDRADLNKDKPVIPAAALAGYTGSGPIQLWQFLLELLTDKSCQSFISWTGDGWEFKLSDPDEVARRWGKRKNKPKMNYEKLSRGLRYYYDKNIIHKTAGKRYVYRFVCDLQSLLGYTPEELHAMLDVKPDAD

[7] = biological target: Pax5(1-149) Q22A;Ets-1(331-440) (human;murine, UniProt Q02548;P27577 1-149;331-440, Q22A|)
Chain of Pax5(1-149) Q22A;Ets-1(331-440) (Q02548 1-149 Q22A, one chain of several): as the sequence (Q02548 1-149) above, with Q22A counted along it

[8] = biological target: Pax5(1-149) Q22A;Ets-1(280-440) (human;murine, UniProt Q02548;P27577 1-149;280-440, Q22A|)
Chain of Pax5(1-149) Q22A;Ets-1(280-440) (Q02548 1-149 Q22A, chain 1 of 2, one chain of several): as the sequence (Q02548 1-149) above, with Q22A counted along it

[9] = biological target: Pax5(1-149) Q22A;GABPα(311-430);GABPβ1(1-157) (human;;, UniProt Q02548;Q00422;Q00420 1-149;311-430;1-157, Q22A||)
Chain of Pax5(1-149) Q22A;GABPα(311-430);GABPβ1(1-157) (Q02548 1-149 Q22A, chain 1 of 3): as the sequence (Q02548 1-149) above, with Q22A counted along it
Chain of Pax5(1-149) Q22A;GABPα(311-430);GABPβ1(1-157) (Q00422 311-430, chain 2 of 3): as the sequence (Q00422 311-430, chain 1 of 2) above
Chain of Pax5(1-149) Q22A;GABPα(311-430);GABPβ1(1-157) (Q00420 1-157, chain 3 of 3): as the sequence (Q00420 1-157, chain 2 of 2) above

Chain of Pax5(1-149) WT;GABPα(311-430) (Q02548 1-149, chain 1 of 2): as the sequence (Q02548 1-149) above
Chain of Pax5(1-149) WT;GABPα(311-430) (Q00422 311-430, chain 2 of 2): as the sequence (Q00422 311-430, chain 1 of 2) above
Chain of Pax5(1-149) WT;Ets-1(331-440) (Q02548 1-149, chain 1 of 2, one chain of several): as the sequence (Q02548 1-149) above
Chain of Pax5(1-149) WT;GABPα(311-430);GABPβ1(1-157) (Q02548 1-149, chain 1 of 3): as the sequence (Q02548 1-149) above
Chain of Pax5(1-149) WT;GABPα(311-430);GABPβ1(1-157) (Q00422 311-430, chain 2 of 3): as the sequence (Q00422 311-430, chain 1 of 2) above
Chain of Pax5(1-149) WT;GABPα(311-430);GABPβ1(1-157) (Q00420 1-157, chain 3 of 3): as the sequence (Q00420 1-157, chain 2 of 2) above

B1: P5-EBS probe (dsDNA)
DNA 1: TCGAAGGGCCACTGGAGCCCATCTCCGGCACGGC
DNA 2: TCGAGCCGTGCCGGAGATGGGCTCCAGTGGCCCT
Kd [1]: 0.89 ± 0.14 nM
Kd [2]: 4.08 ± 0.38 nM
Kd [3]: 17.8 ± 0.74 nM
Kd (Ets-1(331-440)): 136 ± 5.29 nM
Kd [4]: 234 ± 24.8 nM
Kd (Pax5(1-149) WT): 2.4 ± 0.47 nM
Kd (Pax5(1-149) Q22A): 1.72 ± 0.37 nM
Kd [5]: 0.49 ± 0.05 nM
Kd [6]: 6.14 ± 5.38 nM
binding result (Ets-1(280-440)): no binding
Kd [7]: 7.89 ± 0.76 nM
Kd [8]: 162 ± 44.3 nM
Kd [9]: 3.36 ± 0.14 nM
